US7361348B2, “Immunogenic glycopeptides, screening, preparation and uses” (priority 2000, dated 2008)
“Also recorded” adds a separate entry of the source. Where two headings read alike, the source gives them in different places.

Key:
[1] = tested on: guinea pigs immunized with live BCG; format: in vivo, guinea pig; conditions: for loss of antigenic activity during digestion with α-mannosidase: 0.2 μg intradermally
T lymphocytes = assay: in vitro lymphocyte proliferation assay; format: cell-based
Text: The conditions of the assay are those described in Horn et al., mentioned above.

[2] = tested on: guinea pigs immunized with heat-inactivated BCG; format: in vivo, guinea pig
[3] = tested on: guinea pigs immunized with the Apa fusion peptide; format: in vivo, guinea pig
[4] = tested on: guinea pigs immunized with the plasmids pAG831 or pAG832; format: in vivo, guinea pig; conditions: antigen 0.2 μg in 100 μl
[5] = tested on: specific CD4+ T lymphocytes; conditions: cited from earlier work
[6] = guinea pigs immunized with live BCG

Lip: Mannosylated glycopeptide purified from M. tuberculosis culture, derived from the protein encoded by the Rv1796 gene (SEQ ID NO:3) (TIPTTETPPPPQTVTLSPVPPQTVTVIPAPPPEEG; not fully specified; mannosylated; MOD_RES (4)..(4) glycosidic bond to a di- or a tri-saccharide; listed as Mycobacterium tuberculosis)
delayed-type hypersensitivity of the peptide treated with subtilisin ([1]; 0.02 μg in 0.1 ml, live BCG): abolishes the antigenic activity; also recorded: negative | delayed-type hypersensitivity of the peptide treated with α-mannosidase ([1]; 0.02 μg in 0.1 ml, live BCG): negative | antigenic activity after deglycosylation ([1]; after α-mannosidase 24 h at 37° C., live BCG): less than 30 000 TU/mg | activity relative to the standard purified proteins from M. tuberculosis (PPD) ([1]; at an equivalent amount of proteins, Lip 0.02 μg vs PPD 0.25 μg in 0.1 ml): at least 10 times | antigenic activity [1, 6]: 1 000 000 TU/mg | delayed-type hypersensitivity reaction (in words) [1, 6]: very active | loss of the antigenic activity by action of α-mannosidase ([1]; α-mannosidase 24 h at 37° C.): more than 95% | T-lymphocyte proliferation (T lymphocytes; T lymphocytes treated with an antibody directed against CD4 molecules): marginal | T-lymphocyte proliferation (T lymphocytes; glycopeptide treated with α-mannosidase): marginal | T-lymphocyte proliferation (T lymphocytes; native Lip): dependent on the peptide concentration | delayed-type hypersensitivity reaction (in words) [2]: relatively inactive

B1: Native Apa: Mannosylated protein secreted by M. tuberculosis, product of the Rv 1860 gene, purified from culture supernatant (protein, UniProt P9WIR7 40-325, looked up)
Alanine and proline-rich …: DPEPAPPVPTTAASPPSTAAAPPAPATPVAPPPPAAANTPNAQPGDPNAAPPPADPNAPPPPVIAPNAPQPVRIDNPVGGFSFALPAGWVESDAAHFDYGSALLSKTTGDPPFPGQPPPVANDTRIVLGRLDQKLYASAEATDSKAAARLGSDMGEFYMPYPGTRINQETVSLDANGVSGSASYYEVKFSDPSKPNGQIWTGVIGSPAANAPDAGPPQRWFVVWLGTANNPVDKGAAKALAESIRPLVAPPPAPAPAPAEPAPAPAPAGEVAPTPTTPTPQRTLPA
modifications: native mannosylated
notes: Mannosylated protein secreted by M. tuberculosis, product of the Rv 1860 gene, purified from culture supernatant
loss of antigenic activity during digestion with α-mannosidase ([1]; digestion 1 h, tuberculin titre vs PPD standard): 66% | loss of antigenic activity during digestion with α-mannosidase ([1]; digestion 4 h (3 to 6 mannose residues remain)): 86% | delayed-type hypersensitivity reaction (in words) [1, 6]: show a delayed-type hypersensitivity reaction only in response to the native Apa; also recorded: considerable; also recorded: only the glycosylated native Apa is antigenic | delayed hypersensitivity sensitization (in words) [3]: identical | delayed-type hypersensitivity / CD4+ T lymphocyte response (in words) [4]: equivalent | loss of antigenicity on demannosylation ([5]; α-mannosidase, TFMS or expression in E. coli): 100 fold

B2: E. Coli recombinant Apa: deglycosylated recombinant Apa produced in E. coli (protein, UniProt P9WIR7 40-325, looked up)
Alanine and proline-rich …: B1 Alanine and proline-rich …
modifications: non-glycosylated, produced in E. coli
delayed-type hypersensitivity reaction (in words) ([1]; guinea pigs immunized with live BCG, listed as molecules produced in E. coli): very weak or absent | delayed-type hypersensitivity reaction (in words) ([1]; guinea pigs immunized with live BCG, listed as non-glycosylated recombinant Apa produced in E. coli): no reaction or develop a greatly decreased reaction | delayed-type hypersensitivity / CD4+ T lymphocyte response (in words) [4]: of the same strength as the responses observed with the glycosylated native antigen | delayed-type hypersensitivity / CD4+ T lymphocyte response (in words) ([4]; listed as E. coli rApa): equivalent

B3: glycosylated Apa produced by Mycobacterium smegmatis: Glycosylated Apa produced by M. smegmatis, overall mannose composition slightly different from M. tuberculosis Apa (protein, UniProt P9WIR7 40-325, looked up)
Alanine and proline-rich …: B1 Alanine and proline-rich …
modifications: glycosylated, produced in M. smegmatis
decrease of antigenic activity versus Apa produced by M. tuberculosis [5]: approximately 10 fold

B4: Deglycosylated Apa: deglycosylated Apa protein prepared as described in example 1 (α-mannosidase digestion) (protein, UniProt P9WIR7 40-325, looked up)
Alanine and proline-rich …: B1 Alanine and proline-rich …
modifications: deglycosylated
delayed-type hypersensitivity reaction (in words) [1, 6]: very weak or absent | delayed hypersensitivity sensitization (in words) [3]: identical | delayed-type hypersensitivity / CD4+ T lymphocyte response (in words) [4]: of the same strength as the responses observed with the glycosylated native antigen
